For one sequence, binding signal (% of IgE response) results are on record in publication PMC3247736.

The data set deals with IgM (human). The experiment in a line: QCM. The conditions noted are these: 500 mg/L IgM vs 100 ug/L IgE; 5'-biotin; 8.1 mM Na2HPO4, 1.1 mM KH2PO4, 1 mM MgCl2, 2.7 mM KCl, 138 mM NaCl, pH 7.4, 37 C; BSA-blocked avidin-coated gold crystal.

Sequence “GGGGCACGTTTATCCGTCCCTCCTAGTGGCGTGCCCC [D17.4 anti-IgE aptamer]” had a binding signal (% of IgE response) of under 5.
